Test results as given in patent US6858210B1, “Therapeutic and diagnostic domain 1 β2GPI polypeptides and methods of using same” (La Jolla Pharmaceutical Co., priority 1998, dated 2005).
Like-named read-outs stand apart in the source and are kept apart here.

How the values were obtained:
[1] = system: affinity purified β2GPI-dependent antiphospholipid antibody; assay: Competitive inhibition ELISA: recombinant β2GPI proteins compete for antibody binding to coated full length recombinant β2GPI; design: species or system human; details: for IC50: read-out: 50% (concentration to give 50% inhibition)
How it was run: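 Wells coated with full-length recombinant β2GPI (10 μg/ml, pH 9.5) and milk-blocked. Serially diluted recombinant β2GPI proteins were co-incubated with a fixed concentration of patient antibody for 1 h at 37 °C. Bound IgG detected with alkaline phosphatase anti-human IgG at OD550; percent inhibition is background-corrected against inhibitor-free wells.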

rabbit anti-β2GPI = assay: Direct binding ELISA, nickel chelate-coated wells, rabbit antibody; details: O.D. at 550 nm
How it was run: (§1)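 His-tagged recombinant β2GPI mutants captured on nickel chelate wells in serial dilution (2 h, room temperature), no anionic phospholipid; GST-6his as negative control. Affinity-purified patient antibodies (11 patients) or rabbit anti-β2GPI detected by alkaline phosphatase anti-IgG, OD 550 nm.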

[2] = system: affinity purified β2GPI-dependent antiphospholipid antibody; assay: Direct binding ELISA, nickel chelate-coated wells charged with recombinant β2GPI proteins (no cardiolipin); design: species or system human; details: O.D. at 550 nm
How it was run: as §1

Max (maximum inhibition observed at concentrations tested) ([1]; Ab 6203): 10%
IC50 ([1]; Ab 6203): > 57 µM
Max (maximum inhibition observed at concentrations tested) ([1]; Ab 6501): 20%
IC50 ([1]; Ab 6501): > 57 µM
Max (maximum inhibition observed at concentrations tested) ([1]; Ab 6509): 20%
IC50 ([1]; Ab 6509): > 16 µM
Max (maximum inhibition observed at concentrations tested) ([1]; Ab 6626): 18%
IC50 ([1]; Ab 6626): > 57 µM
Max (maximum inhibition observed at concentrations tested) ([1]; Ab 6632): 20%
IC50 ([1]; Ab 6632): > 57 µM
Max (maximum inhibition observed at concentrations tested) ([1]; Ab 6641): 20%
IC50 ([1]; Ab 6641): > 16 µM
Max (maximum inhibition observed at concentrations tested) ([1]; Ab 6644): 10%
IC50 ([1]; Ab 6644): > 57 µM
Max (maximum inhibition observed at concentrations tested) ([1]; Ab 6652): 40%
IC50 ([1]; Ab 6652): > 16 µM
Max (maximum inhibition observed at concentrations tested) ([1]; Ab 6701): 10%
IC50 ([1]; Ab 6701): > 16 µM
Max (maximum inhibition observed at concentrations tested) ([1]; Ab 7008): 20%
IC50 ([1]; Ab 7008): > 57 µM
Max (maximum inhibition observed at concentrations tested) ([1]; Ab 7015): 10%
IC50 ([1]; Ab 7015): > 57 µM
Max (maximum inhibition observed at concentrations tested) ([1]; Ab 7101): 5%
IC50 ([1]; Ab 7101): > 57 µM
Max (maximum inhibition observed at concentrations tested) ([1]; Ab 7104): 10%
IC50 ([1]; Ab 7104): > 57 µM
B1: -2345: recombinant β2GPI deletion mutant with domains 2-5 (protein)
chain: GRTPRVCPFAGILENGAVRYTTFEYPNTISFSCNTGFYLNGADSAKCTEEGKWSPELPVCAPIICPPPSIPTFATLRVYKPSAGNNSLYRDTAVFECLPQHAMFGNDTITCTTHGNWTKLPECREVKCPFPSRPDNGFVNYPAKPTLYYKDKATFGCHDGYSLDGPEEIECTKLGNWSAMPSCKASCKLPVKKATVVYQGERVKIQEKFKNGMLHGDKVSFFCKNKEKKCSYTEDAQCIDGTIEVPKCFKEHSSLAFWKTDASDVKPCGHHHHHH
Maximum O.D. (rabbit anti-β2GPI): 1.873
Maximum O.D. ([2]; Ab 6203): 0.074
Maximum O.D. ([2]; Ab 6501): 0.018
Maximum O.D. ([2]; Ab 6626): 0.008
Maximum O.D. ([2]; Ab 6632): 0.031
Maximum O.D. ([2]; Ab 6641): 0.045
Maximum O.D. ([2]; Ab 6644): 0.041
Maximum O.D. ([2]; Ab 6652): 0.008
Maximum O.D. ([2]; Ab 6701): 0.002
Maximum O.D. ([2]; Ab 7008): 0.019
Maximum O.D. ([2]; Ab 7015): 0.114
Maximum O.D. ([2]; Ab 7101): 0.056
